Test results: article PMC5137450

T1: MBNL1 (UniProt Q9NR56 1-260)
T1 sequence: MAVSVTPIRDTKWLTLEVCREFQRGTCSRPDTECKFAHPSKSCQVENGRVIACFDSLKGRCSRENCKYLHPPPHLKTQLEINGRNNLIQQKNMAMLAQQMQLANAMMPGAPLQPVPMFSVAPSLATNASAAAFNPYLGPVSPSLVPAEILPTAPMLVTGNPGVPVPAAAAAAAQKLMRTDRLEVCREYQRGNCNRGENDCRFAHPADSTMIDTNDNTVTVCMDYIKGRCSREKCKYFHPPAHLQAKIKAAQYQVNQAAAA

T2: MBNL3 (human, UniProt Q9NUK0 1-257)
T2 sequence: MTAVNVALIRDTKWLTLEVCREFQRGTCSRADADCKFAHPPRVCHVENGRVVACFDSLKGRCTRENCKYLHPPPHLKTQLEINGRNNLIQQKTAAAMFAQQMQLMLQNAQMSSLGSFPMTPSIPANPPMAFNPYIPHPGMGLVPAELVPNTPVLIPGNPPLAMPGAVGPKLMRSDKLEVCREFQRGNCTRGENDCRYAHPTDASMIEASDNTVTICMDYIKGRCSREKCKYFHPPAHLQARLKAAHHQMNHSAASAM

T3: MBNL2 (human, UniProt Q5VZF2 1-268)
T3 sequence: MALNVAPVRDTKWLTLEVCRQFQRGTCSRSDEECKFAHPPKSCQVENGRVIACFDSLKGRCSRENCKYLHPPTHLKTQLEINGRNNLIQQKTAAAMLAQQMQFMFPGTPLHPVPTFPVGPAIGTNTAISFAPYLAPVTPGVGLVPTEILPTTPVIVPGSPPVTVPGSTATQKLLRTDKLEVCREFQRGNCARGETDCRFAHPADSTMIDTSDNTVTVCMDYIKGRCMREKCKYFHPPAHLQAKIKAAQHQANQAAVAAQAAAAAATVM

B1: (CUG)20 (structured_RNA)
RNA: CUGCUGCUGCUGCUGCUGCUGCUGCUGCUGCUGCUGCUGCUGCUGCUGCUGCUGCUGCUG
B2: Atp2a1 intron 22 RNA (145 nt) (structured_RNA)
RNA: GGGCACCCCUGCGGUCACUUGCGCGCGCUCGCAGCUCUCCCUGGAGCCACUGCUGCUGUUGCCACUGCCCGCUUCCACAUGAGGGCCAUGCCGUUACUGUGGGCACUGGCAGCUGUGAGGCUGUGUCCUGGCCGUCCAGUCUGCU

Tests used:
Test in all cases: filter binding
MBNL1 [1] = biological target: T1, MBNL1
MBNL3 [2] = biological target: T2, MBNL3
MBNL2 [3] = biological target: T3, MBNL2
MBNL1 [4] = biological target: T1, MBNL1; remark: listed apart in the source
MBNL3 [5] = biological target: T2, MBNL3; remark: listed apart in the source
MBNL2 [6] = biological target: T3, MBNL2; remark: listed apart in the source

Binder	Kd (MBNL1 [1]) [nM]	Kd (MBNL3 [2]) [nM]	Kd (MBNL2 [3]) [nM]	binding result (MBNL1 [4])	binding result (MBNL3 [5])	binding result (MBNL2 [6])
B1	~7.75	~7.75	~7.75	–	–	–
B2	–	–	–	binds	binds	binds
